Results taken from the DeepSol protein solubility set.

Experiment: soluble on expression in E. coli; label from the status in PepcDB or PDB records

Sequence	soluble on expression in E. coli
MAALRNGLEGSSEETSFHDESLQDDREEIENNSYHMHPAGIILTKVGYYTIPSMDDLAKITNEKGECIVSDFTIGRKGYGSIYFEGDVNLTNLNLDDIVHIRRKEVVVYLDDNQKPPVGEGLNRKAEVTLDGVWPTDKTSRCLIKSPDRLADINYEGRLEAVSRKQGAQFKEYRPETGSWVFKVSHF	soluble
MAALRVPLSQQQLEQLKANKKWGEYVEAQAGQKYEHFTSPYKQSMLTVKEWIMPQGLVIYVRTDDGTYPARVVNAGPDNICVRIVKANKSDPEPETQISYDQVIKSTEVLKMEPLKFKWIRKKTDNLYSIEAFQNLSGFFNKKVFELLKKGDFMEYQHDDEPWKCTIVEIIENHNGLIFIRNGLFVRCVHMFSPFCHELGWADKLKETNDERAAGMTYKILIKLENDRDQRVIVDRHIFRNNTISPHRFQDLQVLVYLEEDHFYLAHVKCKTRKTGLTDSYFFQISRGTELVRDSLLSDNKMPVQFHLNDARIFGYRDLERLHFPIDLPDGVQKIEGESNVDAYIRTYCLTDKEKARVPRLNESEKRAMFDRKILSNEIGVHMKHGAMLRDSKFNPTAGSLTPWAGTKCAEVSWFLPSSGRTRNRRADLLAARVVKYTEHIAHLYVARLDKTIYMHVADPRLHPAGFADGVNLPIEYSDAFAKDADIEIQISQLEETLDNLACEQDSTKDQN	not soluble
MAASVEQREGTIQVQGQALFFREALPGSGQARFSVLLLHGIRFSSETWQNLGTLHRLAQAGYRAVAIDLPGLGHSKEAAAPAPIGELAPGSFLAAVVDALELGPPVVISPSLSGMYSLPFLTAPGSQLPGFVPVAPICTDKINAANYASVKTPALIVYGDQDPMGQTSFEHLKQLPNHRVLIMKGAGHPCYLDKPEEWHTGLLDFLQGLQ	soluble
MAATVDTMSEEVKRLIALYELTPHPASGGWFRETYRSDVQVEAEGFDGKRSVLTMIYYLMQAGQPDPFHRVKSDETFVHNLGGSMKIHMIHPDGSYSCSILGNPLEHPEARHQVVVPRRVWFAQEVDGYCLASVLVAPGFDFKDFSLGKREELIKEYPQHRDVIMRCTSSDP	soluble
MAAVSEFRLLQLPERAQRISLSHMSYNSIFSLSLCSTKKNKRPQGVPIRTLTYEGIEITSDRINRKHPVSDTFLSKAGFLDFYNCTYKSSQFIHKFLIHNTTTVFTRGVPRYNLNDLLVSNGQKIYVQVGRGIIFLEKDVNKFLKHWIRGSNRELKSLAFRAPMNMEIEHAIETILKGICYKDAREEDAASIKLVHICNGNTFKHPIIKISGFRIKRFDGTNATVVIRLLNANSVCFTSYVLHFLHNTSIMAAVSPFRLLQLPQRAQRISLSHMSSVSVFSLSLCATKNTKDLVRSLNLKCIRLCLEFFDDLILSICFEGCIIDFYLYMLNSSQKITPGLCAPKNVQVSTNDVKNFKWERPNLKFRNWIDHFLYILNISTLDVAMGKGVRVKKLSYHILDMTSNETNRTNSVNDTFLSKAEFIVLSNCTYETSQSIHKFLICNNATLFSNVFSPYNLNDLLISNCQNLLVNVDRGNIFLGQDVNKFLKHWIRGSNVTLKCLALEAPMNMERELVIETILEGIDYKVKEEEVSVYKKMLDIFNHGNPSITKIRGFRITRFDGTNCDVVIRTCNPSVMRYSLNMFIF	not soluble
MAAYKDLTKEELLELKSGLQAQFEEVKARGLKLDMSRGKPAAAQLNLSMEMMNILNSGTDLVCEDGVDCRNYGGLDGIAEAKQLLADMMEVPKDNVIVFGNSSLNVMYDTVARAMTHGIMGSTPWCKLDKVKFLCPVPGYDRHFAITEHFGIEMINVPMTATGPDMDLVEKLVSEDPAIKGIWCVPKYSNPQGITYSDETVYRFANLKPAAEDFRIFWDNAYCVHHLYEDKQDYLLEILMECKKAGNQDMVYKFSSTSKISFPGSGIAAIAASDANLADIRNMMKVQTIGHDKVNQLRHVRFFKDIHGIVEHMKKHADIMRPKFETVINTLERELGGLEIGSWIAPRGGYFISFDAMEGCAKAIVAKAKEAGLVMTGAGATFPYGKDPKDSNIRIAPSYPTPEELAVAAEIFVLSVKLVSIDKLLKNL	not soluble
MAAYRADDDYDFLYKVVLIGDSGVGKSNLLSRFTRNEFSLESKSTIGVEFATRSIHVDEKIVKAQIWDTAGQERYRAITSAYYRGAVGALLVYDVTRHVTFENVERWLKELRDHTEANIVIMLVGNKADLRHLRAVSTEDAKAFAERENTFFMETSALEALNVENAFTEVLSQIYRVASKKALDIGDDHTTLPKGQSINVGSKDDVSEVKKVGCCSS	soluble
